According to the DeepSol protein solubility set:

Experiment: soluble on expression in E. coli; label from the status in PepcDB or PDB records
In the case of “QRNGFCRLPADEGICKALIPRFYFNTETGKCTMFSYGGCGGNENNFETIEECQKACGAPERVNDFESADFKTGCEPAADSGSCAGQLERWFYNVQSGECETFVYGGCGGNDNNYESEEECELVCKNM”, the “soluble on expression in E. coli” value is reported as “soluble”.
For “QVQLLESGAELVKPGASVKLSCKASGYTFTSYWMHWVKQRPGRGLEWIGRIDPNSGGTKYNEKFKSKATLTVDKPSSTAYMQLSSLTSEDSAVYYCTRRDSDYWGAGTTVTVSSASTKGPSVFPLAPSSKSTSGGTAALGCLVKDYFPEPVTVSWNSGALTSGVHTFPAVLQSSGLYSLSSVVTVPSSSLGTQTYICNVNHKPSNTKVDKKVEPKSCDKT”, the “soluble on expression in E. coli” value was “soluble”.
In the case of “QVQLQQSGAELMKPGASVKISCKATGYTFSSYWIAWVKQRPGHGLEWIGEILPGSGSTNYNEKFKGKATFTADTSSNTAYMQLSSLTSEDSAVYYCARSPYYYGNWDYWGQGTTLTVSSAKTTPPSVYPLAPGSAAQTNSMVTLGCLVKGYFPEPVTVTWNSGSLSSGVHTFPAVLQSDLYTLSSSVTVPSSTWPSETVTCNVAHPASSTKVDKKIVPRDC”, the “soluble on expression in E. coli” value is reported as “soluble”.
In the case of “QVQSVEVMRDSYGVPHVFADSHYGLYYGYGYAVAQDRLFQMDMARRSFVGTTAAVLGPGEQDAYVKYDMQVRQNFTPASIQRQIAALSKDERDIFRGYADGYNAYLEQVRRRPELLPKEYVDFDFQPEPLTDFDVVMIWVGSMANRFSDTNLEVTALAMRQSLEKQHGPERGRALFDELLWINDTTAPTTVPAPAA”, the “soluble on expression in E. coli” value is reported as “soluble”.
For “RALDTEDIQKVFTKLPQSSAVTSDMRRTQELFVLMFLLRGLPFVDLAYLRKSDLHDNVITYRRRKTGRPLSVTLTPEAMAILKRYMNRDTSSPYLFPLLNSREGTKEAYHEYQLALRNFNRQLMLLGEMLGLGDKLSSYTARHTWATTAYYCEIHPGVISEAMGHSSITVTETYLKPFRNKKIDEANKKVVDFIKRSIPIAMC”, the “soluble on expression in E. coli” value was “not soluble”.
In the case of “RDHRKIGKQLDLYHMQEEAPGMVFWHNDGWTIFRELEVFVRSKLKEYQYQEVKGPFMMDRVLWEKTGHWDNYKDAMFTTSSENREYCIKPMNCPGHVQIFNQGLKSYRDLPLRMAEFGSCHRNEPSGSLHGLMRVRGFTQDDAHIFCTEEQIRDEVNGCIRLVYDMYSTFGFEKIVVKLSTRPEKRIGSDEMWDRAEADLAVALEENNIPFEYQLGEGAFYGPKIEFTLYDCLDRAWQCGTVQLDFSLPSRLSASYVGEDNERKVPVMIHRAILGSMERFIGILTEEFAGFFPTWLAPVQVVIMNITDSQSEYVNELTQKLSNAGIRVKADLRNEKIGFKIREHTLRRVPYMLVCGDKEVESGKVAVRTRRGKDLGSMDVNEVIEKLQQEIRSRSLKQLEE”, the “soluble on expression in E. coli” value is reported as “soluble”.
For “RDILEVLQDIHMETGETVAIATKNDIYLQYIQIIESVHALRFHVDENAIRPLTMSSNGWMLMSTMNDKAIDNTVRRANTITQKDGIRFEVDDMMARIRQVREQGYASAEHIPFVGGGTICVLLPMTIQGQPVTMGLGGALDRIKQNYDRYLELLLNGVQQLKKSDSFHQPIELAH”, the “soluble on expression in E. coli” value was “not soluble”.
In the case of “REGMNTIARNLGITCSADIGLISIEYTCFSNNLSYTQVLSLPKTGVNTDKLDQMERFVKEFGNDCSSLTIRQIHNKLDTVQRK”, the “soluble on expression in E. coli” value is reported as “not soluble”.
In the case of “RESLGRDVMVVVDLSGSMAEQDFVSKQSSDLGAVKKISRLEATKEVLADFVKTRKGDRLGLILFGDAAFVQTPFTADQSVWLELLNQTDVAMAGQSTHLGDAIGLAIKVFEQSSEDKASAEENAKPREKVAIVLTDGNDTGSYVEPIDAAKVAAAKDVRIHMIAMGDPRTVGEQALDMNIINRVAKESGGKAFQAINRDELEQAYDEIGELEPQLYE”, the “soluble on expression in E. coli” value is reported as “not soluble”.
In the case of “REVLARDREVLRSVYGILVQAHYRNTPDDLLAMLESPHHRIYALEADGTPVAVADVVLEGPDVEEEARIALERLLYMAGSPGSGVVSWRVSRIAVHEDLQRRGLGSRLLRHVEAQARESGASLVTTMFSRHDVIPFWLKNGFKPFYVSPRYNRVTGEKNVALAKPLDSAGA”, the “soluble on expression in E. coli” value is reported as “not soluble”.
In the case of “RIVLQTSAHTLGDVVVTGYQTLERRKLTAAISKVEVSDAMVGAAKSIDQALTGQIAGVSVTNTSGAPGSPAKIRIRGTASMNGTQDPLWVLDGIPLEGTDIPKMDNKSSDNDIVNIGQSSIAGLSPNDIESITILKDAAATAIYGARAANGVIVVTTKRGKTGK”, the “soluble on expression in E. coli” value is reported as “not soluble”.
With “RKDFTKEEVNYLFHGVKTMGNHWNSILWSFPFQKGRRAVDLAHKYHRLI” the “soluble on expression in E. coli” value was “soluble”.
In the case of “RKQAEEKLVASERFLRMLTNQLPGMVGYWDRDLRCRFANDAYKEWFGRSPEQIIGLTVQELMGEELFRLSEPYIRGALQGEPQNFERELVKPNGETGYTWAQYIPDMVNDKAIGFFVLISDVT”, the “soluble on expression in E. coli” value is reported as “not soluble”.
For “RLFGDNVVALAGDAGFRTYWLSNQARLGRYDTPVTAMANMAHFKTWADAPYDEALLPLLDAALAEPGRKVVFLHINGNHDNYCTRYPETATVYQGGAPYEDCYDNSIRYVDALLGAVMDRLGERRASLLFYPDHGLERHESVLGTFYHGGVRPSREAFDIPMFIWNSPAAPAPARREYDAPYSTEDNYGLILDWLG”, the “soluble on expression in E. coli” value was “not soluble”.
With “RLKNPKIKQGGEWMDVDWKTALEYVRSAIECIAKDGNQNQVGVWANPMNTVEELYLAKKFADGLGVKNFATRLRQQDKRLSDGLKGAQWLGQSIESLADNDAVLVVGANLRKEQPLLTARLRRAAKDRMALSVLAGSKEELFMPLLSQEAAHPDEWAGRLKNLSADAEHAVTASLKNAEKAAVILGAEVQNHPDYAAIYAAAQELADATGAVLGILPQAANSVGADVLGVNSGESVAEMANTPKQAVLLLNVEPEIDTVDGAKAVAALKQAKSVMAFTPFVSETLLDVCDVLLPIAPFTETSGSFINMEGRLQSFHGVVQGFGDSRPMWKVLRVLGNLFDLKGFEYHDTAAILKDALD” the “soluble on expression in E. coli” value was “not soluble”.
In the case of “RLQPIIVPGWQGSGPGHWQTHWSRTLPHAVRLQQRDWHQPQRAEWVAALAAAVDAAPTPVLLVAHSLGCLVSAALPIALRAKVAGALLVAPADVERPGAPAAIAAFGPVPRQSLPYQSVVIASDDDPYCRLERARQFAQDWGSRLVVLQGAGHINADSQLGAWPQGLKQLAALRRRACW”, the “soluble on expression in E. coli” value is reported as “not soluble”.
In the case of “RLQSRILAGLLHTVVRYRRKVVRDNLTRCFPEKSLQEIRRIERRFYYNFTYQILSSFKLLTYSQAQLRRHISFENLDVLIRLRAEGHPAILLMMGHFGNWEYFSGSQAIIKDLGLQIYQIFRPLKSTSSDRLMHRIRERFGSRGIAKHDVPRELLRLVRNPIPTETP”, the “soluble on expression in E. coli” value is reported as “not soluble”.
For “RPGGDAREPRKIILHKGSTGLGFNIVGGEDGEGIFVSFILAGGPADLSGELRRGDRILSVNGVNLRNATHEQAAAALKRAGQSVTIVAQYRPEEYSRFES”, the “soluble on expression in E. coli” value was “soluble”.
For “RPRNALLLLADDGGFESGAYNNSAIATPHLDALARRSLLFRNAFTSVSSCSPSRASLLTGLPQHQNGMYGLHQDVHHFNSFDKVRSLPLLLSQAGVRTGIIGKKHVGPETVYPFDFAYTEENGSVLQVGRNITRIKLLVRKFLQTQDDRPFFLYVAFHDPHRCGHSQPQYGTFCEKFGNGESGMGRIPDWTPQAYDPLDVLVPYFVPNTPAARADLAAQYTTVGRMDQGVGLVLQELRDAGVLNDTLVIFTSDNGIPFPSGRTNLYWPGTAEPLLVSSPEHPKRWGQVSEAYVSLLDLTPTILDWFSIPYPSYAIFGSKTIHLTGRSLLPALEAEPLWATVFGSQSHHEVTMSYPMRSVQHRHFRLVHNLNFKMPFPIDQDFYVSPTFQDLLNRTTAGQPTGWYKDLRHYYYRARWELYDRSRDPHETQNLATDPRFAQLLEMLRDQLAKWQWETHDPWVCAPDGVLEEKLSPQCQPLHNEL”, the “soluble on expression in E. coli” value was “soluble”.
In the case of “RSDTIMVLSINPKEKKTELVSIPRDTKAEIAGRGTEEKINHAYAYGGPNMAVKTIEKLMNVPIDHYATIDMDGLHDMIDTLGGVDVVSNSTFTMGANHFVKGEKTHVDGDAAMDFIRSRKEDGAGGDFGRQERQQLILEAMADKLTS”, the “soluble on expression in E. coli” value is reported as “not soluble”.
With “RSFAKDLEAKQKMSLTSWFLVSSGGTRHRLPREMIFVGRDDCELMLQSRSVDKQHAVINYDASTDEHLVKDLGSLNGTFVNDVRIPEQTYITLKLEDKLRFGYDTNLFTVVQGEMRVPEEALKHEKFTIQLQLSQKSSESELSKSASAKSIDSKVADAATEVQHKTTEALKSEEKAMDISAMPRGTPLYGQPSWWGDDEVDEKRAFKTNGKPEEKNHEAGTSGCSIDAKQVEEQSAAANEEVLFPFCREPSYFEIPTKEFQQPSQITESTIHEIPTKDTPSSHITGAGHASFTIEFDDSTPGKVTIRDHVTKFTSDQRHKSKKSSPGTQDLLGIQTGMMAPENKVADWLAQNNPPQMLWERTEEDSKSIKSDVPVYLKRLKGNKHDDGTQSDSENAGAHRRCSKRATLEEHLRRHHSEHKKLQKVQATEKHQDQAVVFGVDDNQDYNRPVINEKHKDLIKDWALSSAAAVMEERKPLTTSGFHHSEEGTSSSGSKRWVSQWASLAANHTRHDQEERIMEFSAPLPLENETEISESGMTVRSTGSATSLASQGERRRRTLPQLPNEEKSLESHRAKVVTQRSEIGEKQDTELQEKETPTQVYQKDKQDADRPLSKMNRAVNGETLKTGGDNKTLLHLGSSAPGKEKSETDKETSLVKQTLAKLQQQEQREEAQWTPTKLSSKNVSGQTDKCREETFKQESQPPEKNSGHSTSKGDRVAQSESKRRKAEEILKSQTPKGGDKKESSKSLVRQGSFTIEKPSPNIPIELIPHINKQTSSTPSSLALTSASRIRERSESLDPDSSMDTTLILKDTEAVMAFLEAKLREDNKTDEGPDTPSYNRDNSISPESDVDTASTISLVTGETERKSTQKRKSFTSLYKDRCSTGSPSKDVTKSSSSGAREKMEKKTKSRSTDVGSRADGRKFVQSSGRIRQPSVDLTDDDQTSSVPHSAISDIMSSDQETYSCKPHGRTPLTSADEHVHSKLEGSKVTKSKTSPVVSGSSSKSTTLPRPRPTRTSLLRRARLGEASDSELADADKASVASEVSTTSSTSKPPTGRRNISRIDLLAQPRRTRLGSLSARSDSEATISRSSASSRTAEAIIRSGARLVPSDKFSPRIRANSISRLSDSKVKSMTSAHGSASALKTTRLQSAGSAMPTSSSFKHRIKEQEDYIRDWTAHREEIARISQDLALIAREINDVAGEIDSVTSSGTAPSTTVSTAATTPGSAIDTREEVGDLHGEMHKLVDRVFDESLNFRKIPPLVHSKTPEGNNGRSGDPRPQAAEPPDHLTITRRRTWSRDEVMGDNLLLSSVFQFSKKIRQSIDKTAGKIRILFKDKDRNWDDIESKLRAESEVPIVKTSSMEISSILQELKRVEKQLQAINAMIDPDGTLEALNNMGFPSAMLPSPPKQKSSPVNNHHSPGQTPTLGQPEARALHPAAVSAAAEFENAESEADFSIHFNRFNPDGEEEDVTVQE” the “soluble on expression in E. coli” value was “soluble”.
For “SAKTDKLAQFLDSGIYESDEFNWFFLDTVRITNRSYTRFKVSPSAYYSRFFNSKQLNQHSSESNPKKRKRKQKNSSFHLPSVGEQASNLRHQEARLFLSKAHESFLKEIELLSLTKGLSDDNDDDDSSLLNKCCDDEVSFIELGGVWQAPFYEITLSFNLHCDNEGESCNEQRVFQVFNNLVVNEIGEEVEAEFSNRRYIMPRNSCFYMSDLHHIRNLVPEKISHYHIGRRCNSLIDVIYAAKSEEGYNLIVIDPPWENASAHQKSKYPTLPNQYFLSLPIKQLAHAEGALVALWVTNREKLLSFVEKELFPAWGIKYVATMYWLKVKPDGTLICDLDLVHHKPYEYLLLGYHFTELAGSEKRSDFKLLDKNQIIMSIPGDFSRKPPIGDILLKHTPGSQPARCLELFAREMAAGWTSWGNEPLHFQDSRYFLKV”, the “soluble on expression in E. coli” value was “soluble”.
